Data on one molecule can be found in PMC6166933 (2018).

Test [1] addresses T1, Recombinant human RO60 (human, UniProt P10155 1-538). Kind of test: BLI; rRO60 917 nM. In general terms: Biolayer interferometry detects binding as a change in optical thickness at a sensor tip.
For test [2], the target named is T1, Recombinant human RO60. Briefly: BLI; rRO60 1833 nM.

T1 sequence (P10155 whole entry): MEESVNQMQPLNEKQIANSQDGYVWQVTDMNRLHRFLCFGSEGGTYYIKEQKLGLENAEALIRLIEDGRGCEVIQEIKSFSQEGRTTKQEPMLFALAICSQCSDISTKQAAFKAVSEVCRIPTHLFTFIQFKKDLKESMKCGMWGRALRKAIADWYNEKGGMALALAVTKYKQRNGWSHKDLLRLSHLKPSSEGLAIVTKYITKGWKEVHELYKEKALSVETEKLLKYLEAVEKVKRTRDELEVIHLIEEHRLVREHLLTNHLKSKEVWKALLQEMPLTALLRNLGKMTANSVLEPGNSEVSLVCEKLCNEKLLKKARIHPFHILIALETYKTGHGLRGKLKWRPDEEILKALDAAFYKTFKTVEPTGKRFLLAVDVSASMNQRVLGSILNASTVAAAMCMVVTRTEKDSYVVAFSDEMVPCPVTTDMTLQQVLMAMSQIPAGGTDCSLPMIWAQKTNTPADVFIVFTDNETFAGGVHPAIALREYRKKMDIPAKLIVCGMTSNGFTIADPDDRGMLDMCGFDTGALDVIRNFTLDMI

B1: Recombinant GST-tagged human DDX6 (natural protein)
chain: MSTARTENPVIMGLSSQNGQLRGPVKPTGGPGGGGTQTQQQMNQLKNTNTINNGTQQQAQSMTTTIKPGDDWKKTLKLPPKDLRIKTSDVTSTKGNEFEDYCLKRELLMGIFEMGWEKPSPIQEESIPIALSGRDILARAKNGTGKSGAYLIPLLERLDLKKDNIQAMVIVPTRELALQVSQICIQVSKHMGGAKVMATTGGTNLRDDIMRLDDTVHVVIATPGRILDLIKKGVAKVDHVQMIVLDEADKLLSQDFVQIMEDIILTLPKNRQILLYSATFPLSVQKFMNSHLQKPYEINLMEELTLKGVTQYYAYVTERQKVHCLNTLFSRLQINQSIIFCNSSQRVELLAKKISQLGYSCFYIHAKMRQEHRNRVFHDFRNGLCRNLVCTDLFTRGIDIQAVNVVINFDFPKLAETYLHRIGRSGRFGHLGLAINLITYDDRFNLKSIEEQLGTEIKPIPSNIDKSLYVAEYHSEPVEDEKP
As a reminder, the koff is the first-order rate constant of dissociation. With B1, the koff with Recombinant human RO60 [1] came out at 0.0046 s⁻¹; in the test with Recombinant human RO60 [2], 0.0062 s⁻¹.
